{"source": "patent US20140234868A1", "about": "“USE FOR GLYCOLIPOPROTEIN GINTONIN, ISOLATED AND IDENTIFIED FROM GINSENG, AS A NATURAL MEDICAL-PLANT DERIVED LIGAND” (KONKUK UNIVERSITY INDUSTRIAL COOPERATION CORP., priority 2011, published 2014)", "molecules": {"B1": {"name": "gintonin: ginseng-derived glycolipoprotein; structural protein of ginseng major latex-like protein (MLP151) and ribonuclease-like storage proteins; crude gintonin used in tests (protein)", "chain 1": "MGLTGKLICQTGIKSDGDVFHELFGTRPHHVPNITPANIQGCDLHEGEFGKVGSVVIWNYSIDGNAMIAKEEIVAIDEEDKSVTFKVVEGHLFEEFKSIVFSVHVDTKGEDNLVTWSIDYEKLNESVKDPTSYLDFLLSVTRDIEAHHLPK", "chain 2": "RSDYPWAMFALRLQWPAGFCEVNNACDTKSLLNTFTIHGLYPYNAKGTPALYCDGTAFDVNSVSDFLAEMHLAWPSHETNTEDIQFWEHEWKKHGRCSEALLKQTDYFRTALAFRKAFDIVGLLNQEGIYPNNDLYRPKMIKEAIKKHLNAVPEIDFTKNENSEYVLTDINVCVNQQATRFVDCPTDDATDDYRLKFVRLPSKMKFADPRTNSII"}}, "key": {"[1]": {"system": "GPR87, GPR40, GPR41, GPR43 and GPR120", "experiment": "Intracellular free Ca2+ in B103 cells expressing other orphan GPCRs and fatty acid receptors", "assay_type": "cell-based", "settings": "B103 cells expressing the other receptors (GPR87, GPR40, GPR41, GPR43, GPR120)", "source_text": "Optionally, the method may further comprise (8) pre-treating the suspended B103 cells with LPA receptor antagonists and LPA receptor-mediated signaling-relevant drugs (e.g., pertussis toxin, PLC inhibitors, IP3 receptor antagonists) to examine whether the cells decrease or increase in intracellular free Ca^2+, prior to treatment with gintonin; (9) performing site-directed mutagenesis to identify an amino acid of LPA receptors with which gintonin interact to activate the LPA; and (10) examining whether gintonin activates orphan GPCRs including GPR35 and GPR87, and free fatty acid GPCRs including GPR40, GPR41, GPR43 and GPR120, all known for activation by LPA.\nIn addition, GPR35 (Oka et al., Biochem Biophys Res Commun. 395, 232-237, 2010) and GPR87 (Tabata et al., Biochem Biophys Res Commun. 363, 861-866, 2007), both known as orphan GPCRs reacting with LPA, and GPR40, GPR41, GPR43 and GPR120 (Hirasawa et al., Biol Pharm Bull. 31, 1847-1851, 2008), all known as fatty acid receptors reacting with free fatty acids, were expressed in B103 cells when gintonin activity was tested."}, "[2]": {"system": "HUVECs", "experiment": "HUVEC migration, Boyden chamber", "assay_type": "cell-based, human", "settings": "70~80 min, 37° C.", "description": "To measure the effect of gintonin on cell migration, a Boyden chamber (Neuro Probe Inc., Gaithersburg, Md., USA) assay was employed (Kim et al. Biol Pharm Bull 30: 1674-1679, 2007; Lee et al. Am J Physiol Cell Physiol 278:C612-C618, 2000).\nIn the Boyden chamber (48 wells) of two compartments separated by a collagen-coated polycarbonate microporous membrane (8-μm pores), gintonin in M199 (0.1% BSA contained) was placed onto the wells of lower compartment while a HUVEC suspension was added to the wells of the upper compartment (5×10^4 cells/well). During incubation at 37° C. for 70˜80 min, the cells were allowed to migrate through the membrane into the lower compartment. Then, the chamber was disassembled, and the cells on the membrane was fixed and stained with Diff Quik (Sysmex, Kobe, Japan), and mounted on a slide."}, "[3]": {"target": "LPA4 receptor (Homo sapiens, UniProt Q99677)", "sequence (Q99677 whole entry)": "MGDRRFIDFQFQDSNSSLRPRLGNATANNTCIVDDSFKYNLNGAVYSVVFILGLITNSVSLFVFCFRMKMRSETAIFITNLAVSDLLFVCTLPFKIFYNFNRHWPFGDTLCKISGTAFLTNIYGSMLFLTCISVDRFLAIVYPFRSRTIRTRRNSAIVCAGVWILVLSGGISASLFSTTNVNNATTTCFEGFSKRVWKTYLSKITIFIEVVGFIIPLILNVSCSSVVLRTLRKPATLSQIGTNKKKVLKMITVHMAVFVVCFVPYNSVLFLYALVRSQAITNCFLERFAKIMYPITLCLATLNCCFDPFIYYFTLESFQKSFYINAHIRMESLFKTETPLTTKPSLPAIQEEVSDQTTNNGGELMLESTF", "experiment": "Intracellular free Ca2+ (Fura-2AM) in LPA4-expressing B103 cells", "assay_type": "cell-based", "parameters": "host or cells: B103 rat neuroblastoma cells", "settings": "gintonin", "source_text": "LPA family receptors are endogenous to cells of most organs. B103 rat neuroblastoma cells, known as LPA receptor-null cells (Valentine et al., Biochim Biophys Acta 1780. 597-605) were transiently transfected with a plasmid (vector) carrying one of genes coding for LPA1(edg-2), LPA2(edg-4), LPA3(edg-7), LPA4, LPA5 and LPA6 receptors or a plasmid carrying none of them (empty vector). Two or three days after transfection, the cells are suspended, and made permeable. Then, the permeable cells are treated with Fura-2AM, a fluorescent dye binding to calcium, and then with gintonin, followed by spectrofluorephotometry to examine whether gintonin induces an increase in intracellular free Ca^2+ level. […]"}}, "data": [{"molecule": "B1", "values": [{"measurement": "increase of intracellular calcium level", "setting": "[1]", "value": "not act on the other receptors"}, {"measurement": "cell migration", "setting": "[2]", "value": "promoted cell migration in a concentration-dependent manner"}, {"measurement": "increase in intracellular calcium level", "setting": "[3]", "value": "61.6 ± 11.8", "unit": "µM"}]}]}
